B1: K8-355 (antibody, mouse IgG1, V domains shown)
VH: QIQLVQSGPELKKPGETVKISCKASKYTFTNYGMNWVKQAPGKVLRWMGWINTYTGEPTYADDFKGRFAFSLETSASTAYLQINNLKNEDMATYFCATTTLITYYFDYWGQGTTLTVSS
VL: DIQMTQTTSSLSASLGDRVTISCRSSQDISKYLNWYQQKPDGTVKLLIYYTSRLHSGVPSRFSGSGSGTDYSLTISNLEQEDIATYFCQQGDTVPWTFGGGTKLEIK

Columns and labels:
[1] = target: HLA-DR on solid tumor cell lines C32, HT-144 (melanoma) and OVCAR-5 (ovarian) (human); test: cell-based or functional assay
[2] = target: HLA-DR on solid tumor cell lines C32, HT-144 (melanoma) and OVCAR-5 (ovarian) (human, UniProt P01903 26-254; P01911 30-266); test: cell-based or functional assay

Molecule | specific cell death in C32 and HT-144 cells, 24 hour assay, 10 µg/ml [1] [%] | specific cell death in C32 and HT-144 cells, 24 hour assay, 10 µg/ml [2] [%]
L227 (anti-HLA-DR β, ATCC HB-96) (antibody) | 40 | –
1D10 (antibody) | 5 to 15 | –
B1 | – | ~40

From patent US6894149 (PROTEIN DESIGN LABS, dated 2005)
